Measured values reported in paper PMC7679444, “Regulation of cytokine signaling through direct interaction between cytokine receptors and the ATG16L1 WD40 domain” (Nature Communications, 2020).
Where no end group is shown, it is not given here. Tds = not defined here

Target: T1, GST-HA-ATG16L1(231–607) (human, UniProt Q676U5 231-607)
T1 construct: ATG16L1, human, residues 231-607 (results and legend); the methods name the construct 230-607; includes the WD40 domain (WDD, 320-607); Limits differ between results (231-607) and methods (230-607); also called GST-HA-ATG16L1-230-607; recombinant protein that includes the WDD; source: HEK-293T, retrovirally transduced, purified (GSH-agarose, eluted with reduced GSH, concentrated)
Test: peptide or protein array; peptides immobilised on glass slides through the N-terminal end with a Tds spacer (JPT); GST-HA-ATG16L1 fragment in PBS/0,05% Tween-20 with 5% BSA, 20-800 nM, 2 h at RT plus overnight at 4 °C; detected with anti-HA and anti-GST and Cy5-labelled secondary antibodies; binding normalised to the wild-type peptide
Conditions: both partners purified

T1 sequence (Q676U5 231-607): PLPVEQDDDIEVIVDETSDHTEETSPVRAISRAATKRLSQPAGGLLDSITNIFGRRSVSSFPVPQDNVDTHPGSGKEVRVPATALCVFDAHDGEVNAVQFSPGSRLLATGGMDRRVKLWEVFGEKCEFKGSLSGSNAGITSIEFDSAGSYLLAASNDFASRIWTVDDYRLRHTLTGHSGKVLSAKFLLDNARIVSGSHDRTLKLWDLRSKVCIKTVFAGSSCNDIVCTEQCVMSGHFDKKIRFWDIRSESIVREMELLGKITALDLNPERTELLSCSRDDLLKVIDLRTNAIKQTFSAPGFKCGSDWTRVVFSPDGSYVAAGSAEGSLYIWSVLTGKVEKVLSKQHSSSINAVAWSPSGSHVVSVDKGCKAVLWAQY

Binder	binding result
Tds-YEKLSIYGDL (peptide, UniProt Q9BXS4 268-280, looked up, reading uncertain, TMEM59 residues 268-280 with the native residues between Y268 and E272 deleted; only the changed stretch is printed; also called YE (Y268-E272); source: synthetic peptide on microarray, ordered from JPT (Germany)) [TMEM59 peptide 268–280 with decreased Y268-E272 distance (YE)]	binds
Tds-YVPSEKAALASAIYGDL (peptide, UniProt Q9BXS4 268-280, looked up, reading uncertain, TMEM59 residues 268-280 with extra alanines between E272 and Y277; only the changed stretch is printed; source: synthetic peptide on microarray, ordered from JPT (Germany)) [TMEM59 peptide 268–280 with increased E272-Y277 distance (EKAALASAIY)]	binds
Tds-YVPSELYGDL (peptide, UniProt Q9BXS4 268-280, looked up, reading uncertain, TMEM59 residues 268-280 with native residues between E272 and Y277 deleted so that one (L) is left; only the changed stretch is printed; source: synthetic peptide on microarray, ordered from JPT (Germany)) [TMEM59 peptide 268–280 with decreased E272-Y277 distance (ELY)]	binds
Tds-YVPSEKLSIYGDL (peptide, UniProt Q9BXS4 268-280, looked up, reading uncertain, TMEM59 intracellular domain, residues 268-280; also called active TMEM59 peptide; source: synthetic peptide on microarray, ordered from JPT (Germany)) [TMEM59 peptide (residues 268–280), wild type]	binds
Tds-YVAPAASEKLSIYGDL (peptide, UniProt Q9BXS4 268-280, looked up, reading uncertain, TMEM59 residues 268-280 with extra alanines between Y268 and E272; only the changed stretch is printed; also called YVAPAASE (Y268-E272); source: synthetic peptide on microarray, ordered from JPT (Germany)) [TMEM59 peptide 268–280 with increased Y268-E272 distance (YVAPAASE)]	binds
